Test results reported in US11285285B2, “Systems and methods comprising a droplet delivery device and a breathing assist device for therapeutic treatment” (PNEUMA RESPIRATORY, INC., priority 2016, dated 2022).

Tests used:
Assay type in all cases: physicochemical
[1] = Anderson Cascade Impactor testing of Albuterol sulfate aerosol from the droplet delivery device (Example B); details: Albuterol 0.5%, 28.3 lpm, 10 actuations
Procedure: Droplet size distribution and related functionality was evaluated for exemplary droplet delivery devices of the disclosure, including Anderson Cascade Impactor testing, total drug mass output rates, total drug respirable mass, delivery efficiencies and reproducibility.
The study was designed to evaluate device performance of a single Pneuma™ inhaler. A series of three (3) individual tests were conducted with a new disposable drug cartridge for each test. The testing platform utilizes an eight-stage nonviable Anderson Cascade Impactor (Thermo Fisher Scientific; Waltham, Mass.) equipped with a calibrated AALBORG model GFM47 mass flow meter (AALBORG Instruments and Controls; Orangeburg, N.Y.) for flow rate measurement.
At the conclusion of each test, the mouthpiece was rinsed with mobile phase and collected for HPLC analysis to determine the mass fraction of non-respirable aerosolized drug captured in the mouthpiece via inertial filtering. Following each test, impactor stage samples were extracted and recovered in solvent and analyzed for the active pharmaceutical ingredient (API) using a Dionex Ultimate 3000 nano-HPLC with UV detection (Thermo Scientific, Sunnyvale, Calif.).
The cascade impactor testing procedure involved fitting the mouthpiece into the Impactor USP throat with a mouthpiece connection seal. The vacuum pump supplying sample air flow to the cascade impactor was turned on and the pump control valves adjusted to supply 28.3 L/min total flow through the impactor and inhaler body during aerosol tests.
The device was connected to the impactor USB throat, turned on, and actuated ten (10) times for each test. At the conclusion of the test period, the device, impactor, and dilution air sources were turned off. The i mouthpiece was rinsed in order to extract drug, and all stages of the cascade impactor were rinsed with a quantity of appropriate solvent (HPLC mobile phase). Extracted samples were placed in labeled and sterile HPLC vials, capped, and analyzed for drug content via HPLC with UV detection. The mouthpiece was extracted of residual drug and analyzed for drug content via HPLC to measure mouthpiece drug deposition in relation to the total collected on the impactor stages.
All system flow rates and impactor sample flows were monitored throughout each test period. Following each test, the impactor slides were placed in labeled sterile Petri dishes, and impactor stages were extracted of drug using 2 ml of mobile phase applied with a calibrated micropipette. All extracted samples from the mouthpiece and impactor were placed in labeled sterile amber HPLC sample vials, and stored refrigerated at approximately 2° C. until HPLC analysis.
Impactor collection stages for all tests were rinsed with DI water and ethanol, and air dried prior to each inhaler test trial to avoid contamination. A new inhaler drug cartridge was used for each of the three individual tests.
All drug content analysis was performed using a Dionex Ultimate 3000 nano-HPLC equipped with a Dionex UVD-3000 multi-wavelength UV/VIS Detector using a micro flow cell (75 um×10 mm path length, total analytical volume 44.2 nl). […] Total HPLC run time was 6 minutes per sample with approximately 5 minutes flush between each sample. Sample injection was performed with a 1 μl sample loop in full loop injection mode.
Buffer formulation contains reverseosmosis filtered deionized water with 1.13 gr of sodium 1-hexanesulfonate (Alfa Aesar) in 1200 ml of water, with 2 ml glacial acetic acid (Acros Organics) added. The mobile phase solution was mixed and filtered through a 0.45 um filter membrane. The final mobile phase is a 60:40 dilution of Buffer:MEOH.

[2] = Insulin stability after aerosol generation, size exclusion chromatography (SEC)
Excerpt: Size Exclusion Chromatography (SEC): Alternately, to determine the stability of active agent after droplet generation, the generated stream of droplets including the active agent may be collected and SEC-HPLIC may be employed to monitor for any changes in large molecule aggregation and protein fragment content. Soluble protein aggregates and protein fragment content may be calculated by comparing respective peak area under the SEC-HPLC curve of dispensed protein solutions with controls (solutions remaining in the device reservoir).
Drug solutions for testing include Enbrel, (ENBREL® single-use prefilled syringes in 25 mg (0.51 mL of a 50 mg/mL solution of etanercept), and insulin, (Humalog, 200 units/ml, 3 ml kwikpens)
To calculate and compare effects of droplet generation through an ejector mechanism of the disclosure, the total area under the curve of the UV signal at 280 nm versus elution time for controls is compared with the aerosolized samples, which is set to 100%.
Aerosol collection and SEC is performed in a similar fashion as for the Enbrel analysis and aerosol collection.
Fifty microliters of the collected aerosol spray is injected onto the SEC column for analysis, while 50 mcl of the Kwikpen insulin solution is injected onto the SEC column for control samples.

[3] = Gel electrophoresis of active agent after droplet generation
Excerpt: Gel Electrophoresis: To determine the stability of active agent after droplet generation, the generated stream of droplets including the active agent is collected and the molecular weight of the active agent is verified using gel electrophoresis.

[4] = Enbrel stability after aerosol generation, size exclusion chromatography (SEC)
Excerpt: Size Exclusion Chromatography (SEC): Alternately, to determine the stability of active agent after droplet generation, the generated stream of droplets including the active agent may be collected and […] may be employed to monitor for any changes in large molecule aggregation and protein fragment content. Soluble protein aggregates and protein fragment content may be calculated by comparing respective peak area under the SEC-HPLC curve of dispensed protein solutions with controls (solutions remaining in the device reservoir). Drug solutions for testing include Enbrel, (ENBREL® single-use prefilled syringes in 25 mg (0.51 mL of a 50 mg/mL solution of etanercept), and insulin, (Humalog, 200 units/ml, 3 ml […] is performed with a YarraTM 3 um SEC-2000 LC column 300×7.8 mm, SecurityGuard cartridge kit and SecurityGuard cartridges GFC-2000, 4×3 mm ID. Fifty microliters of Enbrel from the syringe (ENBREL® single-use prefilled syringes in 25 mg/0.51 mL of a 50 mg/mL solution of etanercept) is diluted (4:1) (4 parts, 200 mcl of the mobile phase buffer solution to 1 part, 50 mcl Enbrel from syringe). Fifty microliter of the diluted Enbrel is injected and separation was performed at a flow rate of 1.0 ml/min. The mobile phase buffer system included a PHOS. BUFF. SALINE. […] UV detection is performed at 280 nm. […] An ampule/cartridge is filled with either 0.20 ml of Enbrel® (50 mg/ml) diluted 4:1 (10 mg/ml)(4 parts (200 mcl) of PBS and 0.025% NaN3 and 1 part (50 mcl of Enbrel solution from the syringe). After 20 actuations and aerosolization, about 150 mcl of the aerosolized Enbrel solution is recovered and collected in the polypropylene tube located below the ejector mechanism. The control consists of the diluted Enbrel solution, 50 mcl of which is injected into the SEC column for analysis.

[5] = average of Aerosolized S1 and S2
[6] = control (diluted Enbrel 10 mg/ml, not aerosolized), SEC UV 280 nm

Question: What does the source list for Albuterol sulfate?
Answer: Fine Particles (<0.4 um) ([1]; Anderson Cascade): 31.0 µg; Fine Particule Fraction (<0.4 um) ([1]; Anderson Cascade): 3.5%; droplets of an average diameter of less than about 4 μm ([1]; Anderson Cascade): over 70%; Cum. % < ([1]; FILTER): 0.00%; Cum. % > ([1]; FILTER): 100.00%

Question: What does the source list for “Insulin: insulin, Humalog, 200 units/ml, 3 ml kwikpens”?
Answer: ejected dose that is structurally unchanged ([2]; aerosolized with test device): 97.5%; Peak 3 area, Avg. [2, 5]: 2.4905; Peak Area %, Peak 3 ([2]; control (Kwikpen insulin solution 200 U/ml, not aerosolized), SEC): 0%; ejected dose that forms a fragment ([2]; fragment which elutes at ~25 minutes): 2.5%

Question: With adalimumab as the substance, how does the “change in the electrophoretic mobility (molecular weight) of post-aerosol active agent versus control” value (“change in the electrophoretic mobility” for short) [3] read?
Answer: negligible change in the electrophoretic mobility

Question: Which “change in the electrophoretic mobility” value [3] does the source give for bevacizumab here?
Answer: negligible change in the electrophoretic mobility

Question: With etanercept [Enbrel] as the substance, how does the “change in the electrophoretic mobility” value [3] read?
Answer: negligible change in the electrophoretic mobility

Question: And the “Peak 4 area, Avg.” value [4, 5]?
Answer: 0.3545

Question: And the “Peak 5 area, Avg.” value [4, 5]?
Answer: 4.2755

Question: And the “Peak Area %, Peak 4” value [4, 6]?
Answer: 0%

Question: And the “Peak Area %, Peak 5” value [4, 6]?
Answer: 0%

Question: What about the “dose that leads to formation of molecular fragments” value ([4]; fragments with elution times of 13 and 25 minutes) of the same substance?
Answer: 4.6%
